Experimental findings from patent US20230265212A1 (OVERA, published 2023) are described below.

The target in assay [1] is T1, BSA conjugated to SAS1B peptide A (CGGLEETPESSFLIEGDIIRPSPFRL) (conjugated to BSA).
T1 peptide: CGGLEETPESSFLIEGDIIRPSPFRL
The assay can be described thus: BLI (Octet). On the technique in general: BLI is a label-free optical method that tracks binding on a fibre tip over time.

For assay [2], the target named is T2, BSA conjugated to SAS1B peptide A (CGGLEETPESSFLIEGDIIRPSPFRL) (human, conjugated to BSA).
T2 construct: also called peptide-BSA conjugate
T2 peptide: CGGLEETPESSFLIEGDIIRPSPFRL
The assay can be described thus: biolayer interferometry (Octet), peptide-BSA conjugate. The procedure:
Protein A-Purified antibodies were subjected to binding kinetic analysis via biolayer interferometry (Fortebio's Octet instrument) and the parameters of binding to peptide-BSA conjugate were determined (FIGS. 8 and 9). […] The dissociation constants (Kdis) from these three clones were too slow to be accurately fit (<1×10⁻⁶ sec⁻¹). With the caveat that Kdis were inaccurate due to these long residency times, KDs were calculated (FIGS. 8 and 9).

Assay [3] deals with T2, BSA conjugated to SAS1B peptide A …. The experiment in a line: colorimetric ELISA, BSA-peptide A coated, anti-mouse IgG-HRP. The source says:
Colorimetric ELISA data comparing binding of naked OV119 to OV119 conjugated using stochastic chemistry (OV119-WT-OM) and AJICAP site-specific conjugation (OV119-CAP-DM1). The solid phase was coated with BSA conjugated to SAS1B peptide A ([…]). Normalized concentrations of the three antibody moieties were titrated by serial 5-fold dilution. A secondary antibody specific for mouse IgG and conjugated to horse radish peroxidase was then applied. After development using TMB substrate and reaction stopping with H₂SO₄, absorbance of light at 450 nm was measured and plotted against antibody concentration (FIG. 14).

Assay [4] addresses peptide-BSA conjugate (respective antigens of the antibodies). The assay can be described thus: biolayer interferometry (Octet), peptide-BSA conjugate.
Assay [5] has as its target T1, BSA conjugated to SAS1B peptide A …. The experiment in a line: BLI (Octet).

Like-named read-outs stand apart in the source and are kept apart here. A value given as a limit tells only on which side of the number the result lay.

B1: monoclonal antibody OV119 (antibody, V domains shown)
VH: EVQLQESGPELVKPGASVKISCKTSGYTFTEYPMHWVKQSHGKSLEWIGGINPNNGDTTYNQRFKGKATLTVDKSSGTAYMELRSLTSEDSAVYYCVPNFDWFAYWGQGTLVTVSP
VL: DVLMTQSPLSLPVSLGDQASISCRSSQSIVHSYGNTYLEWYLQKPGQSPKLLIYKVSNRFSGVPDRFSGSGSGTDFTLRISRVEAEDLGIYYCFQGSHLPFTFGGGTKLEIK
notes: Mouse hybridoma monoclonal IgG; also called naked OV119 (unconjugated)
The molecule B1 registered a Kd in assay [1] of 0.0343 nM. The molecule further gave a koff in assay [2] of under 1e-06 s⁻¹.

B2: OV119 conjugated to DM1 using AJICAP site-specific conjugation (antibody, V domains shown)
VH: EVQLQESGPELVKPGASVKISCKTSGYTFTEYPMHWVKQSHGKSLEWIGGINPNNGDTTYNQRFKGKATLTVDKSSGTAYMELRSLTSEDSAVYYCVPNFDWFAYWGQGTLVTVSP
VL: DVLMTQSPLSLPVSLGDQASISCRSSQSIVHSYGNTYLEWYLQKPGQSPKLLIYKVSNRFSGVPDRFSGSGSGTDFTLRISRVEAEDLGIYYCFQGSHLPFTFGGGTKLEIK
modifications: DM1 on the heavy chain by AJICAP site-specific conjugation via azide intermediates, 1 or 2 DM1 molecules per heavy chain (DAR 2, 3 and 4); residue not stated
notes: Antibody-drug conjugate of mouse IgG OV119; also called OV119-DM1; OV119-CAP-DM1
B2: in assay [3], the binding result was “binds”.

B3: OV119 conjugated using stochastic chemistry (OV119-WT-OM) (antibody, V domains shown)
VH: EVQLQESGPELVKPGASVKISCKTSGYTFTEYPMHWVKQSHGKSLEWIGGINPNNGDTTYNQRFKGKATLTVDKSSGTAYMELRSLTSEDSAVYYCVPNFDWFAYWGQGTLVTVSP
VL: DVLMTQSPLSLPVSLGDQASISCRSSQSIVHSYGNTYLEWYLQKPGQSPKLLIYKVSNRFSGVPDRFSGSGSGTDFTLRISRVEAEDLGIYYCFQGSHLPFTFGGGTKLEIK
modifications: drug conjugated by stochastic chemistry; sites and drug load not stated
notes: Stochastic conjugate of OV119
For the molecule B3, in assay [3], the binding result is on record as “binds”.

B4: monoclonal antibody OV123 (antibody, V domains shown)
VH: EVQLQESGPGLVKPSQSLSLTCTVTGYSITSDNAWNWIRQFPGNKLEWMGYISYSGRTSYNPSLKSRISVTRDTSKNRFFLQLNSVTTEDTATYYCARIGSYFTMDYWGQGTSVTVSS
VL: DVVMTQTPLSLSVGLGDQASISCRSSQSLVHINGSTYLHWYLQKPGQSPKLLIYKIANRFSGVPDRFSGSGSGTDFTLKISRVEAEDLGAYFCSQSTHVPLTFGAGTKLEIK
The molecule B4 gave a Kd in assay [1] of 0.284 nM. Besides, the koff in assay [4] was under 1e-06 s⁻¹.

B5: monoclonal antibody OV121 (antibody, V domains shown)
VH: EVQLQESGPGLVKPSQSLSLTCTVTGYSVTSDSAWNWIRQFPGNKLEWMGYISYSGSTTYNPSLKSRISITRDTSENQFFLQLRSVTTEDTATYYCARLGNLFTMDYWGQGTSVTVSA
VL: EILLTQSPVILAASPGEKVTITCSASSSLNYMNWYQQRPGSSPKIWIYGISNLASGVPARFSGSGSGTSFSFTINSMEAEDVATYYCQQRSSFPFTFGSGTKLEIK
B5 registered a Kd in assay [5] of 0.532 nM.

B6: monoclonal antibody OV124 (antibody, V domains shown)
VH: EVQLQESGAELMKPGASVKLSCKATGSIFNKYWIDWVRQRPGHGLEWIGEILPGSGSTIYSEKFKGKATITADTSSNTAYMQLSSLTSEDSAVYYCASRALDYWGQGTTLTVSS
VL: DVVMTQTPLSLPVSLGDQASISCRSSQSLIHSNGNTYLHWYLQKPGQSPKLLIYQVSNRFSGVPDRFSGSGSGTDFTLKISRVEAEDLGVYFCSQSTHVPYTFGGGTKLEIK
Take B6: the equilibrium dissociation constant (Kd) in assay [1] was determined as 0.115 nM. The molecule also registered a koff in assay [4] of under 1e-06 s⁻¹.

B7: monoclonal antibody OV115 (antibody, V domains shown)
VH: DVQLQESGPGLVKPSQSLSLTCTVTGYSLTSDYAWNWIRQFPGKKVEWMGYLSYSGRTSYNPSLKSRISITRDTSRNQFFLQLNSVTTEDTATYYCARMGGNFGFDYWGQGTTLTVST
VL: GIVMTQAPLSLPVSLGDQASISCRSSQSLVHINGSTYLHWYLQKPGQSPNLLIYKVSYRFSGVPDRFSGSGSGTDFTLKITRVEAEDLGVYFCSQSTHVPLTFGSGTKLEIK
Take B7: the Kd in assay [5] was under 0.001 nM.

The term Kd denotes the constant that tells how readily two partners part at equilibrium. What is called koff is the first-order rate constant of dissociation. Lower therefore signals slow dissociation.
